# Measurements: publication PMC7790415, “Loss of endocytosis-associated RabGEF1 causes aberrant morphogenesis and altered autophagy in photoreceptors leading to retinal degeneration” (PLoS Genetics, 2020)
# Several values for one entry are separate records, joined by “and”; a condition that tells them apart may be missing. Equal values may be shown once.
# B1: Rabaptin-5 (natural protein, mouse (endogenous in retina), UniProt O35551 1-862, looked up)
# chain: MAQPGPAPQPDVSLQQRVAELEKINAEFLRAQQQLEQEFNQKRAKFKELYLAKEEDLKRQNAVLQAAQDDLGHLRTQLWEAQAEMENIKAIATVSENTKQEAIDEVKRQWREEVASLQAIMKETVRDYEHQFHLRLEQERAQWAQYRESAEREIADLRRRLSEGQEEENLENEMKKAQEDAEKLRSVVMPMEKEIAALKDKLTEAEDKIKELEASKVKELNHYLEAEKSCRTDLEMYVAVLNTQKSVLQEDAEKLRKELHEVCHLLEQERQQHNQLKHTWQKANDQFLESQRLLMRDMQRMEIVLTSEQLRQVEELKKKDQEEDEQQRVNKRKDNKKTDTEEEVKIPVVCALTQEESSTPLSNEEEHLDSTHGSVHSLDADLMLPSGDPFSKSDNDMFKDGLRRAQSTDSLGTSSSLQSKALGYNYKAKSAGNLDESDFGPLVGADSVSENFDTVSLGSLQMPSGFMLTKDQERAIKAMTPEQEETASLLSSVTQGMESAYVSPSGYRLVSETEWNLLQKEVHNAGNKLGRRCDMCSNYEKQLQGIQIQEAETRDQVKKLQLMLRQANDQLEKTMKEKQELEDFLKQSAEDSSHQISALVLRAQASEVLLEELQQSFSQAKRDVQEQMAVLMQSREQVSEELVRLQKDNDSLQGKHSLHVSLQLAEDFILPDTVEVLRELVLKYRENIVHVRTAADHMEEKLKAEILFLKEQIQAEQCLKENLEETLQLEIENCKEEIASISSLKAELERIKVEKGQLESTLREKSQQLESLQEMKVNLEEQLKKETAAKATVEQLMFEEKNKAQRLQTELDVSEQVQRDFVKLSQTLQVQLERIRQADSLERIRAILNDTKLTDINQLPET
# notes: Rabaptin-5 (also known as Rabep1), mouse, endogenous protein of retinal extracts; Endogenous protein; also called Rabep1; source: endogenous, mouse retina extract (control retina)
# Target: T1, RabGEF1 (mouse (endogenous in retina), UniProt Q9JM13 1-491)
# T1 construct: RabGEF1 (Rabex-5), mouse, endogenous protein of retinal extracts, immunoprecipitated with anti-RabGEF1 antibody; Endogenous protein; also called Rabex-5; Rabex5; source: endogenous, mouse retina extract (control retina)
# Assay: affinity purification with mass spectrometry; anti-RabGEF1 and IgG immunoprecipitates from control and Rabgef1-/- mouse retinal lysates; trypsin digest, LC-MS on Orbitrap Lumos (n = 2)
# Conditions: partners not purified
# T1 sequence (Q9JM13 whole entry): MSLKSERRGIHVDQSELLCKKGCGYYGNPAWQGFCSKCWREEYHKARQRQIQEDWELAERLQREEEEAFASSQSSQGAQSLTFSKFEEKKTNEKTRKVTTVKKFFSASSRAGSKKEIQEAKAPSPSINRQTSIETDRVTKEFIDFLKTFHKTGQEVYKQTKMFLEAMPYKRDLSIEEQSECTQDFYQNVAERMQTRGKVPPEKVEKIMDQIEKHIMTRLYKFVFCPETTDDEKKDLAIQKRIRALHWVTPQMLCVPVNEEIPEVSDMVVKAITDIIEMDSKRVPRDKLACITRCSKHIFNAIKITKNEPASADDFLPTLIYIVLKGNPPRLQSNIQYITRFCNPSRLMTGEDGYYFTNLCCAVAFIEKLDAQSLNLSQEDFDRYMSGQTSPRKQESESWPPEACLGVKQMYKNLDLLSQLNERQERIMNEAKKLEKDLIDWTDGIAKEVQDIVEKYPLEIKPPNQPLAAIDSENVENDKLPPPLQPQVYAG
binder,measurement,value
B1,stoichiometry N,0.5 Rabaptin-5 per RabGEF1 (printed as RabGEF1:Rabaptin-5 2:1) and 2 Rabaptin-5 per RabGEF1 (printed as RabGEF1:Rabaptin-5 1:2)
